{"source": "patent US20060159616", "proteins": {"B1": {"name": "recombinant hK13 protein (active form of human kallikrein 13, produced in Pichia pastoris) (protein)", "chain": "VLNTNGTSGFLPGGYTCFPHSQPWQAALLVQGRLLCGGVLVHPKWVLTAAHCLKEGLKVYLGKHALGRVEAGEQVREVVHSIPHPEYRRSPTHLNHDHDIMLLELQSPVQLTGYIQTLPLSHNNRLTPGTTCRVSGWGTTTSPQVNYPKTLQCANIQLRSDEECRQVYPGKITDNMLCAGTKEGGKDSCEGDSGGPLVCNRTLYGIVSWGDFPCGQPDRPGVYTRVSRYVLWIRETIRKYETQQQKWLKGPQ"}}, "key": {"[1]": {"molecular_target": "T1, V-P-R-AMC fluorogenic substrate", "T1 chain": "VPR"}, "[2]": {"molecular_target": "T2, F-S-R-AMC fluorogenic substrate", "T2 chain": "FSR"}}, "data": [{"protein": "B1", "values": [{"measurement": "fluorescence of the substrate VPR-AMC, 10 ng of enzyme (substrate alone 0.5 arbitrary units)", "setting": "[1]", "value": "to 1.9 arbitrary units (10 ng of enzyme)"}, {"measurement": "fluorescence of the substrate VPR-AMC, 100 ng of enzyme (substrate alone 0.5 arbitrary units)", "setting": "[1]", "value": "to 13.9 arbitrary units (100 ng of enzyme)"}, {"measurement": "fluorescence of the substrate VPR-AMC, 160 ng of enzyme (substrate alone 0.5 arbitrary units)", "setting": "[1]", "value": "to 35.5 arbitrary units (160 ng of enzyme)"}, {"measurement": "fluorescence of the substrate FSR-AMC, 10 ng of hK13 (substrate alone 1.1 arbitrary units)", "setting": "[2]", "value": "to 1.9 arbitrary units (10 ng of hK13)"}, {"measurement": "fluorescence of the substrate FSR-AMC, 100 ng of hK13 (substrate alone 1.1 arbitrary units)", "setting": "[2]", "value": "to 6.9 arbitrary units (100 ng of hK13)"}, {"measurement": "fluorescence of the substrate FSR-AMC, 160 ng of hK13 (substrate alone 1.1 arbitrary units)", "setting": "[2]", "value": "to 14.5 arbitrary units (160 ng of hK13)"}]}]}
